The values below come from US8129557B2, “Phosphonic acid diester derivative and method for producing thereof” (priority 2005, dated 2012).

Broadly, the Km is the concentration of substrate that gives half-maximal velocity.

The data set has as its system T1, Cc1cc(=O)oc2cc(NC(=O)CC[C@H](N)C(=O)O)ccc12.
T1 construct: purchased Asahi Kasei Co., Ltd. HC-GTP (lot 603AA)
Briefly: Hydrolytic assay of human GGT (Michaelis constant of substrate). Type of data set: biochemical. As to conditions: other: human GGT, substrate concentration 4.0 μM. How it is done:
In the experiment, at first, Michaelis constants (Km) for 7-(γ-L-glutamylamino)-4-methylcoumarin as substrate were measured by a fluorescence method [Smith, G. D.; Ding, J. L.; Peters, T. J. Anal. Biochem. 100, 136-139 (1979)] for the hydrolytic activities of E-coli GGT and human GGT.
In the hydrolytic assay of human GGT, the measurement was carried out in the same manner as that in the hydrolytic assay of E-coli GGT, except that the substrate concentration was changed to […] and therefore, the explanation of the common portions was omitted.

human GGT (Homo sapiens), sequence (chain, as listed by the source): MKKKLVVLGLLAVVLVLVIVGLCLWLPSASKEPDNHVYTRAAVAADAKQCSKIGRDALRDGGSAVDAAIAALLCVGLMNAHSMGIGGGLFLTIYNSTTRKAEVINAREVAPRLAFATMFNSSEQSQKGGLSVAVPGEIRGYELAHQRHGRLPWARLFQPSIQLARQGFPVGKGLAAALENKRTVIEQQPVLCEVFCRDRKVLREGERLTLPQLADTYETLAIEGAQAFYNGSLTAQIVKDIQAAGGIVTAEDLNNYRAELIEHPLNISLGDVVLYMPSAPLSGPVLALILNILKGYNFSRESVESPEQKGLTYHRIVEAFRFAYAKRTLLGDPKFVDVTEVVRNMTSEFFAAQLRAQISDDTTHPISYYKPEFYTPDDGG
human GGT (Homo sapiens), sequence (chain, as listed by the source): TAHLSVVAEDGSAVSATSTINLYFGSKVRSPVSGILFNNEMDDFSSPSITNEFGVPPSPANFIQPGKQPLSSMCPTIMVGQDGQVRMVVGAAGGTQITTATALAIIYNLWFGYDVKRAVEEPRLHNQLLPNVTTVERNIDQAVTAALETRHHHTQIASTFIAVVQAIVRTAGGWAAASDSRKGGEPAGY

Regarding human GGT (Homo sapiens), the Michaelis-Menten constant (Km) came out at 12.6 µM.
